According to paper PMC7111720:
Where two headings read alike, the source gives them in different places.

Legend:
[1] = molecular target: T1, p22 (Tomato chlorosis virus (isolate AT80/99), UniProt Q001T4 1-193); assay: EMSA
T1 sequence: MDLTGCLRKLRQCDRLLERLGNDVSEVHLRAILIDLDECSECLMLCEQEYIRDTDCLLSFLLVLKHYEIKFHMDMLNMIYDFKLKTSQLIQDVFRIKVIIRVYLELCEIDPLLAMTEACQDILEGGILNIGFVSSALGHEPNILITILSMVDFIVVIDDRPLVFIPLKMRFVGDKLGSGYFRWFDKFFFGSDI

[2] = molecular target: T1, p22; assay: EMSA; remark: listed apart in the source

B1: 21 nt small dsRNA, free 3' OH (dsRNA)
RNA 1: ACUGGAGUUGUCCCAAUUCUU
RNA 2: GAAUUGGGACAACUCCAGUGA
B1: no binding [1].

B2: 21 nt small dsRNA, DIG (dsRNA)
RNA 1: ACUGGAGUUGUCCCAAUUCUU
RNA 2: GAAUUGGGACAACUCCAGUGA
modifications: 3'-DIG on antisense strand
B2: no binding [2].
